# Data: article PMC5358875 (Journal of the American Chemical Society, 2017)
# Bridge positions count the residues as written; N and C are the ends. Square brackets hold non-standard residues; d marks the D form. Ends that are not written are not given here. * marks the point of attachment. 5‑TAMRA = CN(C)c1ccc2c(-c3ccc(C(=O)*)cc3C(=O)[O-])c3ccc(N(C)C)cc3[o+]c2c1; n3 = azido unnatural amino acid, 3 CH2 in side chain; Orn(N3) = [N-]=[N+]=NCCC[C@H](N)C(=O)O; Aha = [N-]=[N+]=NCC[C@H](N)C(=O)O; m3N = not defined here; m3c = not defined here; m3 = not defined here; m4 = not defined here; m5 = not defined here; Ahx = NCCCCCC(=O)O
# B1: hAxin1_1-80: fragment of human Axin1, residues 1–80, containing both TNKS-binding motifs (protein)
# chain: MNIQEQGFPLDLGASFTEDAPRPPVPGEEGELVSTDPRPASYSFCSGKGVGIKGETSTATPRRSDLDLGYEPEGSASPTP
# modifications: left off: GST, end not stated, cleaved
# Key:
# TNKS2 ARC4 = molecular target: T1, TNKS2 ARC4 (Homo sapiens, UniProt Q9H2K2); assay: Direct fluorescence polarization, TNKS2 ARC4; format: binding; details: TAMRA-labeled peptides; n.d. = not detectable; read-out: Kd TNKS2 ARC4 (Direct FP)
# T1 construct: GST (cleaved yes); made in house; host or cells: E. coli C41(DE3)
# T1 sequence (Q9H2K2 488-649): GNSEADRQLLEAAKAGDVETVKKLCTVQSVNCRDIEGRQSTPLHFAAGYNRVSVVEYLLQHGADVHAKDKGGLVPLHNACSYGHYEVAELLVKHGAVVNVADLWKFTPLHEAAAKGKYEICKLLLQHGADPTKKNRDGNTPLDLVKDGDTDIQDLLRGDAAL
# Procedure: Fluorescence polarization (FP) assays were performed in 96-well half area black microplates (Corning) on a CLARIOstar microplate reader (BMG labtech) using excitation filter 540–20 nm, dichroic mirror LP 566 nm, and emission filter 590–20 nm. All peptides were dissolved in water as stock solutions. For direct FP assays, the stock concentrations of the TAMRA-labeled peptides were determined based on the 5-TAMRA absorbance at 556 nm (extinction coefficient ε = 89,000 M^–1 cm^–1) measured on a NanoDrop 2000 (Thermo Scientific) and verified by amino acid analysis (Department of Biochemistry, University of Cambridge). TNKS2 ARC4 (488–649) or TNKS1 ARC2–3 (315–662) was diluted 2-fold serially in the assay buffer (50 mM HEPES pH 7.5, 300 mM NaCl, 2 mM DTT, 0.05% (v/v) Tween 20) for a 12-point titration curve in triplicate. The diluted TAMRA-labeled peptide (20 nM, 50 μL) was mixed with the serially diluted TNKS2 ARC4 or TNKS1 ARC2–3 (40–0 μM, 50 μL) in each well and incubated for 30 min at 25 °C before the measurement. Data were analyzed on GraphPad Prism 5.0, and the dissociation constant, Kd, was determined using the following equation assuming the ratio between the concentration of the bound and that of the total TAMRA-labeled peptide is proportional to the fluorescence polarization [drawing 1] where FP is the fluorescence polarization, B is the minimum FP, T is the maximum FP, L0 is the total concentration of TAMRA-labeled peptide, P0 is the total concentration of protein, and Kd is the dissociation constant.
# TNKS2 ARC4 (488–649) = molecular target: T2, TNKS2 ARC4 (488–649) (human, UniProt Q9H2K2 488-649); assay: FP
# T2 chain: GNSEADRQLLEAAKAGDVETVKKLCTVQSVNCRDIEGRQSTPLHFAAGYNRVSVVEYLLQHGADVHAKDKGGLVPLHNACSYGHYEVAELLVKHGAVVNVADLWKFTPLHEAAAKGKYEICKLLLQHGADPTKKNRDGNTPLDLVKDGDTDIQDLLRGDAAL
# [1] = molecular target: T3, human tankyrase 2 ankyrin repeat cluster 4 (TNKS2 ARC4, residues 488-649) (human, UniProt Q9H2K2 488-649); assay: fluorescence polarisation; direct: TNKS2 ARC4 or TNKS1 ARC2-3 diluted 2-fold serially (40-0 uM, 50 uL) and mixed with TAMRA-labeled peptide (20 nM, 50 uL); 50 mM HEPES pH 7.5, 300 mM NaCl, 2 mM DTT, 0.05% Tween 20; 30 min, 25 C; details: both partners purified
# T3 sequence (looked up): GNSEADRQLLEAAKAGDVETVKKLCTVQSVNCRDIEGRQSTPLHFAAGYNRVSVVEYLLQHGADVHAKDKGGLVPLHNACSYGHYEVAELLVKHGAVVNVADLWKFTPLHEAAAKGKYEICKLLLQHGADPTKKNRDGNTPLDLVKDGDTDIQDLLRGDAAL
# [2] = molecular target: T4, human tankyrase 1 ankyrin repeat clusters 2-3 (TNKS1 ARC2-3, residues 315-662) (human, UniProt O95271 315-662); assay: as above; details: both partners purified
# T4 sequence (looked up): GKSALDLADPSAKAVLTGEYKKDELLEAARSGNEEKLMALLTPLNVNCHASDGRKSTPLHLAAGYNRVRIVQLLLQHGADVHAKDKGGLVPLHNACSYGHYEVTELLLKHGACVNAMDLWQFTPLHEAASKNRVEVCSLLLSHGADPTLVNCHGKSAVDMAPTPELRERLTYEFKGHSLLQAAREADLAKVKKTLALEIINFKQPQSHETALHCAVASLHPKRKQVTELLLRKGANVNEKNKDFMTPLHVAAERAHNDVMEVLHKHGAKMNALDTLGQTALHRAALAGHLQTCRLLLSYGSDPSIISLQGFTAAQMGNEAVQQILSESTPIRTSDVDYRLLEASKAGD
# TNKS1 ARC2-3 = molecular target: T5, TNKS1 ARC2-3 (Homo sapiens, UniProt O95271); assay: Isothermal titration calorimetry, TNKS1 ARC2-3; format: binding; details: unlabeled peptides and Axin proteins
# T5 construct: His6 (cleaved yes); made in house; host or cells: E. coli C41(DE3)
# T5 sequence (O95271 315-662): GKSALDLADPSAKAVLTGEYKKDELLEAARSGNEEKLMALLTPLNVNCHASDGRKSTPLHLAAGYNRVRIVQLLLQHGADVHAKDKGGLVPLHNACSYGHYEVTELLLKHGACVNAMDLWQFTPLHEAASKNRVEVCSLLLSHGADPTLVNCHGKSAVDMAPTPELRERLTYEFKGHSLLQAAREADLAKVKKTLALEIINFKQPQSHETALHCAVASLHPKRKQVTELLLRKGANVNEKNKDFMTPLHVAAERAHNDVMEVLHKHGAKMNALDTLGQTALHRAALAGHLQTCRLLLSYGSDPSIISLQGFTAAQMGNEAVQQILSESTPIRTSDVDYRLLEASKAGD
# Procedure: All ITC experiments were performed on a MicroCal iTC200 (GE Healthcare) at 25 °C. TNKS2 ARC4 (488–649), TNKS1 ARC2–3 (315–662), and Axin1 fragments were dialyzed overnight in PBS and 0.5 mM TCEP. Unlabeled peptides were used in the experiments. The peptide was diluted from the stock solution using the same dialysis buffer, and the effect of buffer dilution was accounted for when preparing TNKS samples. TNKS2 ARC4 (160–280 μM) or TNKS1 ARC2–3 (60–150 μM) was titrated into the sample cell containing the peptide (5–15 μM) or Axin1 fragments (8–12 μM) with an initial injection of 0.2 μL over 0.4 s followed by 19 injections of 2 μL over 4 s with a spacing of 60 s, except for TNKS2 ARC4 and Axin1 fragments for which the spacing was 70 s. Control experiments were performed using the same settings as above except that the cell was filled with dialysis buffer. Data were fitted with nonlinear regression using a one-site binding model from Origin 7.0 (MicroCal, Inc.).[90]
molecule,measurement,setting,value
CN(C)c1ccc2c(c1)Oc1cc(N(C)C)ccc1C21OC(=O)c2cc(C(=O)NCCCCCC(=O)N[C@@H](CCCNC(=N)N)C(=O)N[C@@H](CCC(=O)O)C(=O)N[C@H]3CCn4cc(nn4)CCCCc4cn(nn4)CC[C@@H](C(=O)N[C@@H](CCC(=O)O)C(N)=O)NC(=O)CNC(=O)[C@H](CC(=O)O)NC(=O)CNC3=O)ccc21 [T-cp4n2m4],Kd,TNKS2 ARC4,800 ± 20 nM
CN(C)c1ccc2c(c1)Oc1cc(N(C)C)ccc1C21OC(=O)c2cc(C(=O)NCCCCCC(=O)N[C@@H](CCCNC(=N)N)C(=O)N[C@@H](CCC(=O)O)C(=O)N[C@H]3CCn4cc(nn4)CCCc4cn(nn4)CCC[C@@H](C(=O)N[C@@H](CCC(=O)O)C(N)=O)NC(=O)CNC(=O)[C@H](CC(=O)O)NC(=O)CNC3=O)ccc21 [T-cp4n23m3],Kd,TNKS2 ARC4,1100 ± 40 nM
CC(C)C[C@H](NC(=O)c1cc2cc(c1)-c1cn(nn1)CC[C@H](NC(=O)[C@H](CCC(=O)O)NC(=O)[C@H](CCCNC(=N)N)NC(=O)CCCCCNC(=O)c1ccc3c(c1)C(=O)OC31c3ccc(N(C)C)cc3Oc3cc(N(C)C)ccc31)C(=O)NCC(=O)N[C@@H](CC(=O)O)C(=O)NCC(=O)N[C@H](C(=O)N[C@@H](CCC(=O)O)C(N)=O)CCn1cc-2nn1)C(=O)N[C@@H](CS)C(=O)N[C@@H](CC(C)C)C(=O)N[C@@H](CCCNC(=N)N)C(N)=O [T-cp4n2m3c-LCLR],Kd,TNKS2 ARC4,730 ± 20 nM
CN(C)c1ccc2c(c1)Oc1cc(N(C)C)ccc1C21OC(=O)c2cc(C(=O)NCCCCCC(=O)N[C@@H](CCCNC(=N)N)C(=O)N[C@@H](CCC(=O)O)C(=O)N[C@H]3CCn4cc(nn4)CN(CC(=O)O)Cc4cn(nn4)CC[C@@H](C(=O)N[C@@H](CCC(=O)O)C(N)=O)NC(=O)CNC(=O)[C@H](CC(=O)O)NC(=O)CNC3=O)ccc21 [T-cp4n2m3N],Kd,TNKS2 ARC4,1200 ± 20 nM
CN(C)c1ccc2c(c1)Oc1cc(N(C)C)ccc1C21OC(=O)c2cc(C(=O)NCCCCCC(=O)N[C@@H](CCCNC(=N)N)C(=O)N[C@@H](CCC(=O)O)C(=O)N[C@H]3CCn4cc(nn4)-c4cc(C(=O)O)cc(c4)-c4cn(nn4)CC[C@@H](C(=O)N[C@@H](CCC(=O)O)C(N)=O)NC(=O)CNC(=O)[C@H](CC(=O)O)NC(=O)CNC3=O)ccc21 [T-cp4n2m3c],Kd,TNKS2 ARC4,440 ± 10 nM
CN(C)c1ccc2c(c1)Oc1cc(N(C)C)ccc1C21OC(=O)c2cc(C(=O)NCCCCCC(=O)N[C@@H](CCCNC(=N)N)C(=O)N[C@@H](CCC(=O)O)C(=O)N[C@H]3CCn4cc(nn4)-c4cc(C(=O)N[C@@H](CCCNC(=N)N)C(=O)N[C@@H](CCCNC(=N)N)C(=O)N[C@@H](CCCNC(=N)N)C(=O)N[C@@H](CCCNC(=N)N)C(=O)N[C@@H](CCCNC(=N)N)C(=O)N[C@@H](CCCNC(=N)N)C(=O)N[C@@H](CCCNC(=N)N)C(=O)N[C@@H](CCCNC(=N)N)C(=O)N[C@@H](CCCNC(=N)N)C(N)=O)cc(c4)-c4cn(nn4)CC[C@@H](C(=O)N[C@@H](CCC(=O)O)C(N)=O)NC(=O)CNC(=O)[C@H](CC(=O)O)NC(=O)CNC3=O)ccc21 [T-cp4n2m3c-R9],Kd,TNKS2 ARC4,740 ± 30 nM
CN(C)c1ccc2c(c1)Oc1cc(N(C)C)ccc1C21OC(=O)c2cc(C(=O)NCCCCCC(=O)N[C@@H](CCCNC(=N)N)C(=O)N[C@@H](CCC(=O)O)C(=O)N[C@H]3CCCn4cc(nn4)CCCc4cn(nn4)CCC[C@@H](C(=O)N[C@@H](CCC(=O)O)C(N)=O)NC(=O)CNC(=O)[C@H](CC(=O)O)NC(=O)CNC3=O)ccc21 [T-cp4n3m3],Kd,TNKS2 ARC4,2600 ± 100 nM
{5‑TAMRA-Ahx}-RE[n3]GDG[n3]E (bridge 3-7; not fully specified (bridges)) [T-cp4n3m5],Kd,TNKS2 ARC4 (488–649),1910 nM
same,Kd,[1],1900 ± 50 nM
{5‑TAMRA-Ahx}-RE[Aha]GDG[Aha]E-NH2 (triazole 3-7 via m3c; reading uncertain) [T-cp4n2m3c],Kd,[2],320 ± 3 nM
same,Kd,[1],400 ± 10 nM
{5‑TAMRA-Ahx}-RE[Aha]GDG[Aha]E (triazole 3-7 via m4; reading uncertain) [T-cp4n2m4],Kd,[2],290 ± 8 nM
same,Kd,TNKS2 ARC4 (488–649),810 nM
{5‑TAMRA-Ahx}-RE[Orn(N3)]GDG[Orn(N3)]E (bridge 3-7; not fully specified (bridges)) [T-cp4n3m4],Kd,TNKS2 ARC4 (488–649),1110 nM
same,Kd,[1],1100 ± 30 nM
{5‑TAMRA-Ahx}-RE[Aha]GDG[Aha]E (triazole 3-7 via m5; reading uncertain) [T-cp4n2m5],Kd,TNKS2 ARC4 (488–649),1290 nM
same,Kd,[1],1300 ± 40 nM
{5‑TAMRA-Ahx}-RE[Aha]GDG[Aha]E (triazole 3-7 via m3N; reading uncertain) [T-cp4n2m3N],Kd,[2],280 ± 5 nM
B1,"Stoichiometry (ITC), TNKS1 ARC2-3",TNKS1 ARC2-3,two
{5‑TAMRA-Ahx}-RE[Aha]GDG[Aha]E (triazole 3-7 via m3; reading uncertain) [T-cp4n2m3],Kd,[2],180 ± 7 nM
